These results are taken from patent publication US8828941 (KUNOVUS, dated 2014).

The series concerns the molecule itself. Kind of series: non-reducing PAGE of protein from CHO cells. An excerpt:
Concentrated supernatants from one well of a 6-well plate were separated using polyaclylamide gel electrophoresis (PAGE) under […] conditions. Proteins were transferred to nitrocellulose membranes and detected with antisera specific for GDF-6 or for the FLAG tag, secondary antibodies and detection system.

B1: active domain of GDF-6 fused to a FLAG tag (SEQ ID NO: 25), expressed in CHO cells (ligand)
chain: MDYKDDDDKENLYFQGTAFASRHGKRHGKKSRLRCSKKPLHVNFKELGWDDWIIAPLEYEAYHCEGVCDFPLRSHLEPTNHAIIQTLMNSMDPGSTPPSCCVPTKLTPISILYIDAGNNVVYKQYEDMVVESCGCR
notes: Non-reducing PAGE indicates a homodimer; also called active fragment of GDF-6; active fragment
For the protein B1, the binding result is on record as “binds”.
